Data reported in US20260242436A1 (HANMI PHARM, published 2026).

T1: interleukin-2 beta receptor (SYMANSIS, #4122H) to which a human immunoglobulin Fc region was linked (UniProt P14784 27-239, limits assumed)
T1 construct: Bought receptor-Fc, captured on anti-human immunoglobulin antibody; also called IL-2Rβ; CD122; not shown: human immunoglobulin Fc region
T1 sequence (looked up): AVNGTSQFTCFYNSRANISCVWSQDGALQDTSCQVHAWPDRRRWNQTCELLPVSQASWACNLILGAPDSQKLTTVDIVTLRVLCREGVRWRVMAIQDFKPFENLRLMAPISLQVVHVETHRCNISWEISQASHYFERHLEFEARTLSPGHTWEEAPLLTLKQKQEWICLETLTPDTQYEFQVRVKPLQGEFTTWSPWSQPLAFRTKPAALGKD

T2: interleukin-2 alpha receptor (SYMANSIS, #4102H) to which a human immunoglobulin Fc region was linked (UniProt P01589 22-213, limits assumed)
T2 construct: Bought receptor-Fc, captured on anti-human immunoglobulin antibody; also called IL-2Rα; CD25; not shown: human immunoglobulin Fc region
T2 sequence (looked up): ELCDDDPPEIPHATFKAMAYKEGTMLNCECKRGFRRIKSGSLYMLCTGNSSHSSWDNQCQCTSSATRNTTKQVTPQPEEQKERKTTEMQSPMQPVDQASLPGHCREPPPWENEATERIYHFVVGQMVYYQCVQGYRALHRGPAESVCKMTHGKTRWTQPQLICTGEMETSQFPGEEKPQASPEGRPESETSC


Columns and labels:
[1] = biological target: T1, interleukin-2 beta receptor (SYMANSIS, …); experiment: SPR (Biacore T200); receptor-Fc captured on anti-human Ig CM5 chip, analog flowed; relative to analog 1 = 100%
Description: (§1) In order to measure the binding affinities of the interleukin-2 analogs obtained in Example 4 for each of interleukin-2 alpha and beta receptors, surface plasmon resonance (SPR, BIACORE T200, GE Healthcare) was used. The binding affinities of the prepared analogs for the alpha and beta receptors were measured, and the binding affinity of each of the prepared analogs was compared with that of interleukin-2 analog 1 (aldesleukin).
(§2) First, an anti-human immunoglobulin antibody (Abcam, #ab97221) was immobilized to a CM5 chip (GE healthcare) to about 5,000 resonance unit (RU) through amine coupling, and then the interleukin-2 alpha receptor ([…], #4102H) or interleukin-2 beta receptor ([…], #4122H), to each of which a human immunoglobulin Fc region was linked, was bound to the immunoglobulin antibody using an antigen-antibody binding reaction and thus finally immobilized. Thereafter, the recombinant interleukin-2 analog prepared above was diluted with HBS-P+ buffer (Cytiva, BR100671) to various concentrations by serial dilution, and the diluted samples were allowed to flow through CM5 chips, to which the interleukin-2 receptors were finally immobilized, to measure the binding affinity of each interleukin-2 receptor. […] Upon the completion of the measurement, the binding affinity of the receptor was evaluated according to the 1:1 binding fitting model in the Biaevaluation program.

[2] = biological target: T2, interleukin-2 alpha receptor (SYMANSIS, …); experiment: as above
Description: as §1, §2

| Binder | Relative binding affinity (%) [1] [%] | Relative binding affinity (%) [2] [%] |
| --- | --- | --- |
| interleukin-2 analog 71 (ligand) PTSSSTKKTQLQLEHLLLDLQMILNGINNYKNPKLTAMLTKKFYMPKKATELKHLQCLEEELKPLEEVLNLAQSKNFHFEPRDVVSNINVFVLELKGSETTFMCEYADETATIVEFLNRWITFSQSIISTLT | 17100 | – |
| interleukin-2 analog 13 (ligand) PTSSSTKKTQLQLEHLLLDLQMILNGINNYKNPKLTAMLTAKFYMPKKATELKHLQCLEEELKPLEEVLNLAQSKNFHLRPRDLISNINVIVLELKGSETTFMCEYADETATIVEFLNRWITFSQSIISTLT | 149 | 1.1 |
| interleukin-2 analog 14 (ligand) PTSSSTKKTQLQLEHLLYDLQMILNGINNYKNPKLTAMLTKKFYMPKKATELKHLQCLEEELKPLEEVLNLAQSKNFHLRPRDLISNINVIVLELKGSETTFMCEYADETATIVEFLNRWITFSQSIISTLT | 130 | – |
| interleukin-2 analog 16 (ligand) PTSSSTKKTQLQLEHLLLDLQMILNGINNYKNPKLTAMLTKKFYMPKKATELKHLQCLEEELKPLEEVLNLAQSKNFHLRPRDLISQINVIVLELKGSETTFMCEYADETATIVEFLNRWITFSQSIISTLT | 1260 | 0.2 |
| interleukin-2 analog 18 (ligand) PTSSSTKKTQLQLEHLLLDLQMILNGINNYKNPKLTAMLTKKFYMPKKATELKHLQCLEQELKPLEEVLNLAQSKNFHLRPRDLISNINVIVLELKGSETTFMCEYADETATIVEFLNRWITFSQSIISTLT | 35.3 | – |
| interleukin-2 analog 24 (ligand) PTSSSTKKTQLQLEHLLVDLQMILNGINNYKNPKLTAMLTKKFYMPKKATELKHLQCLEEELKPLEEVLNLAQSKNFHLRPRDLISNINVIVLELKGSETTFMCEYADETATIVEFLNRWITFSQSIISTLT | 37.9 | – |
| interleukin-2 analog 25 (ligand) PTSSSTKKTQLQLEHLLFDLQMILNGINNYKNPKLTAMLTKKFYMPKKATELKHLQCLEEELKPLEEVLNLAQSKNFHLRPRDLISNINVIVLELKGSETTFMCEYADETATIVEFLNRWITFSQSIISTLT | 21.7 | – |
| interleukin-2 analog 31 (ligand) PTSSSTKKTQLQLEHLLLDLQMILNGINNYKNPKLTAMLTFKFYMPKKATELKHLQCLEEELKPLEEVLNLAQSKNFHLRPRELISNINVIVLELKGSETTFMCEYADETATIVEFLNRWITFSQSIISTLT | 236 | 5 |
| interleukin-2 analog 34 (ligand) PTSSSTKKTQLQLEHLLLDLQMILNGINNYKNPKLTAMLTFKFYMPKKATELKHLQCLEEELKPLEEVLNLAQSKNFHFRPRELISNINVIVLELKGSETTFMCEYADETATIVEFLNRWITFSQSIISTLT | 322 | 9.4 |
| interleukin-2 analog 41 (ligand) PTSSSTKKTQLQLEHLLLDLQMILNGINNYKNPKLTRMLTFKFYMPKKATELKHLQCLEEELKPLEEVLNLAQSKNFHFDPRDVVSNINVFVLELKGSETTFMCEYADETATIVEFLNRWITFSQSIISTLT | 22800 | 121 |
| interleukin-2 analog 55 (ligand) PTSSSTKKTQLQLEHLLLDLQMILNGINNYKNPKLTAMLTKKFYMPKKATELKHLQCLEEELKPLEEVLNLAHSKNFHFDPRDLISNINVFVLELKGSETTFMCEYADETATIVEFLNRWITFSQSIISTLT | 3030 | – |
| interleukin-2 analog 57 (ligand) PTSSSTKKTQLQLEHLLLDLQMILNGINNYKNPKLTAMLTKKFAMPKKATELKHLQCLEEELKPLEEVLNLAHSKNFHFDPRDLISNINVFVLELKGSETTFMCEYADETATIVEFLNRWITFSQSIISTLT | 2570 | – |
| interleukin-2 analog 58 (ligand) PTSSSTKKTQLQLEHLLLDLQMILNGINNYKNPKLTAMLTKKFYMPKKATELKHLQCLEEELKPLEEVLNLAQSKNFHFDPRDAASNINVFVLELKGSETTFMCEYADETATIVEFLNRWITFSQSIISTLT | 7770 | – |
| interleukin-2 analog 59 (ligand) PTSSSTKKTQLQLEHLLLDLQMILNGINNYKNPKLTAMLTKKFYMPKKATELKHLQCLEEELKPLEEVLNLAQSKNFHFDPRDAASNINVYVLELKGSETTFMCEYADETATIVEFLNRWITFSQSIISTLT | 1530 | – |
| interleukin-2 analog 61 (ligand) PTSSSTKKTQLQLEHLLLDLQMILNGINNYKNPKLTAMLTKKFYMPKKATELKHLQCLEEELKPLEEVLNLAQSKNFHYDPRDGVSNINVYVLELKGSETTFMCEYADETATIVEFLNRWITFSQSIISTLT | 1040 | – |
| interleukin-2 analog 70 (ligand) PTSSSTKKTQLQLEHLLLDLQMILNGINNYKNPKLTAMLTKKFYMPKKATELKHLQCLEEELKPLEEVLNLAQSKNFHYDPRDVVSNINVFVLELKGSETTFMCEYADETATIVEFLNRWITFSQSIISTLT | 10200 | – |
| interleukin-2 analog 73 (ligand) PTSSSTKKTQLQLEHLLLDLQMILNGINNYKNPKLTAMLTKKFYMPKKATELKHLQCLEEELKPLEEVLNLAQSKNFHFDPRDWVSNINVFVLELKGSETTFMCEYADETATIVEFLNRWITFSQSIISTLT | 1590 | – |
| interleukin-2 analog 74 (ligand) PTSSSTKKTQLQLEHLLLDLQMILNGINNYKNPKLTDMLTKKFYMPKKATELKHLQCLEEELKPLEEVLNLAQSKNFHYDPRDVVSNINVFVLELKGSETTFMCEYADETATIVEFLNRWITFSQSIISTLT | 8150 | – |
| interleukin-2 analog 75 (ligand) PTSSSTKKTQLQLEHLLLDLQMILNGINNYKNPKLTAMLTKKFAMPKKATELKHLQCLEEELKPLEEVLNLAQSKNFHFEPRDVVSNINVFVLELKGSETTFMCEYADETATIVEFLNRWITFSQSIISTLT | 9570 | – |
| interleukin-2 analog 76 (ligand) PTSSSTKKTQLQLEHLLLDLQMILNGINNYKNPKLTAMLTKQFYMPKKATELKHLQCLERELKPLEEVLNLAQSKNFHFDPRDVGSNINVFVLELKGSETTFMCEYADETATIVEFLNRWITFSQSIISTLT | 1040 | – |
| interleukin-2 analog 77 (ligand) PTSSSTKKTQLQLEHLLLDLQMILNGINNYKNPKLTAMLTKEFYMPKKATELKHLQCLERELKPLEEVLNLAQSKNFHFDPRDWVSNINVFVLELKGSETTFMCEYADETATIVEFLNRWITFSQSIISTLT | 644 | – |
| interleukin-2 analog 84 (ligand) PTSSSTKKTQLQLEHLRLDLEMILNGINNYKNPKLTRMLTFKFYMPKKATELKHLQCLEEELKPLEEVLNLAQSKNFHVDPRDEVSNINVFVLELKGSETTFMCEYADETATIVEFLNRWITFSQSIISTLT | 711 | – |
| interleukin-2 analog 86 (ligand) PTSSSTKKTQLQLEHLRLDLEMILNGINNYKNPKLTRMLTFKFYMPKKATELKHLQCLEEELKPLEEVLNLAQSKNFHFEPRDVVSNINVFVLELKGSETTFMCEYADETATIVEFLNRWITFSQSIISTLT | 18700 | 71.1 |
| interleukin-2 analog 90 (ligand) PTSSSTKKTQLQLEHLLLDLQMILNGINNYKNPKLTRMLTWKFYMPKKATELKHLQCLEEELKPLEEVLNLAQSKNFHFEPRDVVSNINVFVLELKGSETTFMCEYADETATIVEFLNRWITFSQSIISTLT | 12800 | 98.4 |
| interleukin-2 analog 94 (ligand) PTSSSTKKTQLQLEHLLLDLQMILNGINNYKNPKLTRMLTFKFYMPKKATELKHLQCLEEELKPLEEVLNLAQSKNFHFEPRDVVSNINVFVFEFKGSETTFMCEYADETATIVEFLNRWITFSQSIISTLT | 35.5 | – |
